Assays:
Settings in all cases: both partners purified
[1] = molecular target: T1, MMP-3 catalytic domain (MMP-3ΔC) (UniProt P08254 100-272); assay: enzyme activity of pre-formed complexes against synthetic substrates; 10 nM [35S]TIMP-3 incubated with an equimolar concentration of metalloproteinase for 1 h at 37 °C; complex formation and stability over 24 h checked by activity
T1 construct: catalytic domain of MMP-3; pro-domain removed with APMA

MMP-9 = molecular target: T2, MMP-9 (UniProt P14780 107-707); assay: as above
T2 construct: MMP-9, active enzyme after removal of the pro-domain with APMA

ectodomain of MMP-14 = molecular target: T3, ectodomain of MMP-14 (UniProt P50281 112-541); assay: as above
T3 construct: also called MMP-14 ectodomain; MMP-14 catalytic domain

[2] = molecular target: T4, FLAG-tagged ADAMTS-4 lacking the C-terminal spacer domain (ADAMTS4-2) (UniProt O75173 213-685); assay: as above
T4 construct: ADAMTS-4 lacking the C-terminal spacer domain
T4 sequence (looked up): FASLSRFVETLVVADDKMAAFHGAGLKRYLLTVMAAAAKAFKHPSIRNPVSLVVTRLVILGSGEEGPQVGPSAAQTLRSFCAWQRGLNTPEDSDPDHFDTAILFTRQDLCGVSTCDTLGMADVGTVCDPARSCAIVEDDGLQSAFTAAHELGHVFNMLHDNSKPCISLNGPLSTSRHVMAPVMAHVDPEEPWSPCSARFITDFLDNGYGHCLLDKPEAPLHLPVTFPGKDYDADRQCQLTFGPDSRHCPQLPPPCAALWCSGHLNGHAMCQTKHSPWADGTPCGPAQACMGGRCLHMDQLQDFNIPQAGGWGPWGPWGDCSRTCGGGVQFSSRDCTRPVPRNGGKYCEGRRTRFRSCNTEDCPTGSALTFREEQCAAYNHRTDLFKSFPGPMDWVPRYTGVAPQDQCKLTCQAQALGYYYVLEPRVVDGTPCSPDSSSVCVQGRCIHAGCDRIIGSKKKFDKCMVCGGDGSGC

[3] = molecular target: T5, FLAG-tagged ADAMTS-5 lacking the C-terminal thrombospondin domain (ADAMTS5-2) (UniProt Q9UNA0 262-874); assay: as above
T5 construct: ADAMTS-5 lacking the C-terminal thrombospondin domain
T5 sequence (looked up): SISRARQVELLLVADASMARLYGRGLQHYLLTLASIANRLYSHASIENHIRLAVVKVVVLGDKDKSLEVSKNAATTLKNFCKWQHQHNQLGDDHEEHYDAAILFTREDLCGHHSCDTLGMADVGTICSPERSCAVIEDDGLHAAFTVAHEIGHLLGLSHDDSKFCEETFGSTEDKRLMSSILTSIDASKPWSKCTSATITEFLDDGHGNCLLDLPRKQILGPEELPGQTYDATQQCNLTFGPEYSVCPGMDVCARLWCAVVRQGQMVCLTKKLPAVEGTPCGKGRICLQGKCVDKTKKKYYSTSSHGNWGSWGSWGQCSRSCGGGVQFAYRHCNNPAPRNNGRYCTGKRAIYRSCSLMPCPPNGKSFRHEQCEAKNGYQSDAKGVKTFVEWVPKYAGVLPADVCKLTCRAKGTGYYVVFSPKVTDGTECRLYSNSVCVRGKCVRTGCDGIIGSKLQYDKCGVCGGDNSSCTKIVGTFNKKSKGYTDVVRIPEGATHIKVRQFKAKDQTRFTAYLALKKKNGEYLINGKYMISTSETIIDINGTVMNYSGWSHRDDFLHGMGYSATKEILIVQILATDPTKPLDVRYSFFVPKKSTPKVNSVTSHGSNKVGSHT

[4] = molecular target: T6, catalytic domain of human MMP-1 (MMP-1ΔC) (human, UniProt P03956 100-269); assay: as above
T6 construct: catalytic domain of human MMP-1 (lacks the hemopexin domain); pro-domain removed with APMA
T6 sequence (looked up): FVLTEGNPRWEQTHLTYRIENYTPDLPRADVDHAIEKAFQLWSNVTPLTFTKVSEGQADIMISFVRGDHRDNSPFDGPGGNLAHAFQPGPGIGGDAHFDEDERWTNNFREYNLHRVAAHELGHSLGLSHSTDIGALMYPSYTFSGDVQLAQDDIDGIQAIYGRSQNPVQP

[5] = molecular target: T7, low-density lipoprotein receptor-related protein 1 (LRP-1) (UniProt Q07954 20-4544); assay: SPR; BIAcore T200; LRP-1 immobilised on a CM5 chip by amine coupling (3000 RU); 25 °C; 150 mM NaCl, 10 mM CaCl2, 50 mM Tris-HCl, 0.01% Tween-20, pH 7.5; 30 μl/min; ligands or pre-formed complexes injected; one-site binding model; triplicate
T7 construct: low-density lipoprotein receptor-related protein 1 (LRP-1), bought from Biomac; source: bought: Biomac (Leipzig, Germany)
T7 sequence (Q07954 20-4544): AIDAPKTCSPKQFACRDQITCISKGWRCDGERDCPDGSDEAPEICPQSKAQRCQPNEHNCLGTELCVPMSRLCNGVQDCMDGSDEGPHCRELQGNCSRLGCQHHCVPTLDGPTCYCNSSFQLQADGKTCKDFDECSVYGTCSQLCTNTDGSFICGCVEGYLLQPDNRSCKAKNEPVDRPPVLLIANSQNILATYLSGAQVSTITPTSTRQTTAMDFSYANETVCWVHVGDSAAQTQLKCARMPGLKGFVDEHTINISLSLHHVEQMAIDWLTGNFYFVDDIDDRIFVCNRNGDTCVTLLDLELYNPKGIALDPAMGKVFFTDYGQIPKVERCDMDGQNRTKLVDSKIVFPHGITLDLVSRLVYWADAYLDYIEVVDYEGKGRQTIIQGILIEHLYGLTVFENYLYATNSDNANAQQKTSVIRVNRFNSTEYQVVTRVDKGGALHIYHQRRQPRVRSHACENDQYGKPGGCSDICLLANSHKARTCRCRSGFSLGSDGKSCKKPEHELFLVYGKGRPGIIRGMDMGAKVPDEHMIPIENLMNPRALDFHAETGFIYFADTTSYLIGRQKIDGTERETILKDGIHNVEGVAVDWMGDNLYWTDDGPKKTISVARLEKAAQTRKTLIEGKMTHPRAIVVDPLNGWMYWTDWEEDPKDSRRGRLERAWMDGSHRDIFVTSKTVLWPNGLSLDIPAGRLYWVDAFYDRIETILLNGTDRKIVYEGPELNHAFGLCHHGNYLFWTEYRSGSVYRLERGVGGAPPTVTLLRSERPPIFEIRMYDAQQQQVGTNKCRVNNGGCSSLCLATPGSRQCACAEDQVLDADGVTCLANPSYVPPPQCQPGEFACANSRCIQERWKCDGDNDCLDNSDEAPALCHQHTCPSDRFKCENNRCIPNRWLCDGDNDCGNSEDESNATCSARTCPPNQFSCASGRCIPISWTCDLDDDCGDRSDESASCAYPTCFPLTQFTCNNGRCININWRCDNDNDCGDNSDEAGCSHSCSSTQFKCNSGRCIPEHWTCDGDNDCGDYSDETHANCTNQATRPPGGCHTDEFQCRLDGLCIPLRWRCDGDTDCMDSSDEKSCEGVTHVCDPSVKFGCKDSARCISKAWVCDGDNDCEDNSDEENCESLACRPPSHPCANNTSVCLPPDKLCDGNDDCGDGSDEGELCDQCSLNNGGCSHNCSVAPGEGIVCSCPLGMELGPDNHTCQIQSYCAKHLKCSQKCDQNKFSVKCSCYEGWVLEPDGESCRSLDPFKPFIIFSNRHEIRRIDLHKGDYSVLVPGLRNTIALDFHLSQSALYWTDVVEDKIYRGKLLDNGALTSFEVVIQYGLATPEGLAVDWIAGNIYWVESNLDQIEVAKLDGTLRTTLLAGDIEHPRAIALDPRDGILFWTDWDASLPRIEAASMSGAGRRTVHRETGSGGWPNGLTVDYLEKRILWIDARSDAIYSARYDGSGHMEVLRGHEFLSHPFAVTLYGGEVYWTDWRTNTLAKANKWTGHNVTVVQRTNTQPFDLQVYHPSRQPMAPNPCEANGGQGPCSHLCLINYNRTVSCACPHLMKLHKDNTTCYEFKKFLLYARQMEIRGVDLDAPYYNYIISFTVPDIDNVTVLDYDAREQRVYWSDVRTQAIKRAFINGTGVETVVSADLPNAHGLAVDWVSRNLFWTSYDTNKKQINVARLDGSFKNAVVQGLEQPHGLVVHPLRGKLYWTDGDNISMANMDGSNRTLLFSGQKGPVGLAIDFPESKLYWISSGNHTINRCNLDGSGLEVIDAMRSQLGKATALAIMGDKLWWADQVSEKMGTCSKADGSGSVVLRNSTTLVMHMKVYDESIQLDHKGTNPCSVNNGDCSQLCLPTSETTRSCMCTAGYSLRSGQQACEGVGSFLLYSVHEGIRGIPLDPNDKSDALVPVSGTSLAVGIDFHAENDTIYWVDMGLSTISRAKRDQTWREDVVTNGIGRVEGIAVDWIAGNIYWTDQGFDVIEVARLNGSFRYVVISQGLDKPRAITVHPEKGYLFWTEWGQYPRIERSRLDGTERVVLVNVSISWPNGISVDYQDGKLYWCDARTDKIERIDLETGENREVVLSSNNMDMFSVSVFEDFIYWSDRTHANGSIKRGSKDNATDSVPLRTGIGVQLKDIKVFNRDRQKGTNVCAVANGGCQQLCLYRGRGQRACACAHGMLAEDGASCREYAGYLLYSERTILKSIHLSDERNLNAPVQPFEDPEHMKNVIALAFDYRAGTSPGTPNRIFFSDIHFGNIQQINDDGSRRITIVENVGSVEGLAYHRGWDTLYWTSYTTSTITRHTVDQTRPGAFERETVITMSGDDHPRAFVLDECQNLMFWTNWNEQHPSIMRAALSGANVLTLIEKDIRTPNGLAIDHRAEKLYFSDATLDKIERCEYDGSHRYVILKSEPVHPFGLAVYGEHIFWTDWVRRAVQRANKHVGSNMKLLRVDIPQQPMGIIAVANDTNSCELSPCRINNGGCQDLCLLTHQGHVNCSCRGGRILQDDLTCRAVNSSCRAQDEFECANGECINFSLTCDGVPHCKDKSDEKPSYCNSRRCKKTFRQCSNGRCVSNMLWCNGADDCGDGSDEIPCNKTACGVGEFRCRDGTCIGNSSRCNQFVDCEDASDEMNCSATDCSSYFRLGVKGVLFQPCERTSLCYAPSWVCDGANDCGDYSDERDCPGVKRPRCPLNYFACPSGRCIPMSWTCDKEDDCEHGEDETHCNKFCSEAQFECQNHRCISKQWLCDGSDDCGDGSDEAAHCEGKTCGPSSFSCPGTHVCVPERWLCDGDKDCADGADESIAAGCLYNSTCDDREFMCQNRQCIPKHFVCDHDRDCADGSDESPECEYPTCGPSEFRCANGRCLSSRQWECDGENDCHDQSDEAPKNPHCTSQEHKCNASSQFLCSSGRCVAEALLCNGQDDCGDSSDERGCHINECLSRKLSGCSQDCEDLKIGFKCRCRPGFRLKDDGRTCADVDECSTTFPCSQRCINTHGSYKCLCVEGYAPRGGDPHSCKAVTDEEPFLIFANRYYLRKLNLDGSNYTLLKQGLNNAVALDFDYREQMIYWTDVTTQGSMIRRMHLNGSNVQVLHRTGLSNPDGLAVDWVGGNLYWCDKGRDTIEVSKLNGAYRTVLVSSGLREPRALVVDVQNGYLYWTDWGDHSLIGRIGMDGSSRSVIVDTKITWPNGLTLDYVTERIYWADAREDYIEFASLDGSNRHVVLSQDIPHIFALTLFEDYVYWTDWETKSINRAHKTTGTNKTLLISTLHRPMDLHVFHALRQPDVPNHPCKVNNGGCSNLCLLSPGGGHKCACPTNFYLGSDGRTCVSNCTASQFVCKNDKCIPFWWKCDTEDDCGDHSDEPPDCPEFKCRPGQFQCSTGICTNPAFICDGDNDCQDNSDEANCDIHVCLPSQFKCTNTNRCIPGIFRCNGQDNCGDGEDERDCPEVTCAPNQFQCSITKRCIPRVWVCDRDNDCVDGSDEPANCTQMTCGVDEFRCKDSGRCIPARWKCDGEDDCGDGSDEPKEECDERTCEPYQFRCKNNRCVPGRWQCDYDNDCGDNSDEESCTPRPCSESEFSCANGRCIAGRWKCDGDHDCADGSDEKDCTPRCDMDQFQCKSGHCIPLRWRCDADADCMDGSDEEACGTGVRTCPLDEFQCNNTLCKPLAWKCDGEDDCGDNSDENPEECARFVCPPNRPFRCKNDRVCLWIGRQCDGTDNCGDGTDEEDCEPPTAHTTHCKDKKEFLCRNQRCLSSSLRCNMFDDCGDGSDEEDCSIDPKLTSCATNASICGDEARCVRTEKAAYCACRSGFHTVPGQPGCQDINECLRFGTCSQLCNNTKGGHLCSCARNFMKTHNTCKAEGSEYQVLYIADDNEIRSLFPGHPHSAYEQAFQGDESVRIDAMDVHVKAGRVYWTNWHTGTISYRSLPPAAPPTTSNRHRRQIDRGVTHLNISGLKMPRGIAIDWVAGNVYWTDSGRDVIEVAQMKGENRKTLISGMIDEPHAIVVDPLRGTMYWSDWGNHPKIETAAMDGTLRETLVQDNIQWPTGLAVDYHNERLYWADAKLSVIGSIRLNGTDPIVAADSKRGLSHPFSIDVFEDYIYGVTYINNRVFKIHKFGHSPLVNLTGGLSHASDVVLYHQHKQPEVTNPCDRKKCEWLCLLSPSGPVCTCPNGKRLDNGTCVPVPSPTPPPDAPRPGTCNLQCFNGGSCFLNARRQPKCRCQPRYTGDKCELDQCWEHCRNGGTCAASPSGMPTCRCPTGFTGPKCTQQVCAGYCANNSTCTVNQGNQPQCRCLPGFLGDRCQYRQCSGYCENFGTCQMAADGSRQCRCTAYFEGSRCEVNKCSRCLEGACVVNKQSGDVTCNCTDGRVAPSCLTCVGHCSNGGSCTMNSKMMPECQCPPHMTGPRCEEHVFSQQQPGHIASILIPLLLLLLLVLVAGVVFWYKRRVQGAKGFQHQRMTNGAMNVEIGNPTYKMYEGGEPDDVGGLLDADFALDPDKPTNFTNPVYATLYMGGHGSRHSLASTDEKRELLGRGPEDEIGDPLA

[6] = molecular target: T8, MMP-13 (active enzyme of the inhibition assays) (UniProt P45452 20-471); assay: enzyme inhibition kinetics (fluorogenic peptide substrates); apparent Ki; enzyme pre-incubated with TIMP-3 (0.5-100 nM) 1 h at 37 °C, equilibrium rate of substrate hydrolysis; TNC buffer (50 mM Tris-HCl pH 7.5, 150 mM NaCl, 10 mM CaCl2, 0.05% Brij-35, 0.02% NaN3), 37 °C; tight-binding equation
T8 construct: MMP-13 whose activity was measured (0.1 nM)

ADAM17 ectodomain = molecular target: T9, ADAM17 ectodomain (UniProt P78536 215-671); assay: as above
T9 construct: ADAM17 ectodomain from R&D Systems; source: bought: R&D Systems
T9 sequence (P78536 215-671): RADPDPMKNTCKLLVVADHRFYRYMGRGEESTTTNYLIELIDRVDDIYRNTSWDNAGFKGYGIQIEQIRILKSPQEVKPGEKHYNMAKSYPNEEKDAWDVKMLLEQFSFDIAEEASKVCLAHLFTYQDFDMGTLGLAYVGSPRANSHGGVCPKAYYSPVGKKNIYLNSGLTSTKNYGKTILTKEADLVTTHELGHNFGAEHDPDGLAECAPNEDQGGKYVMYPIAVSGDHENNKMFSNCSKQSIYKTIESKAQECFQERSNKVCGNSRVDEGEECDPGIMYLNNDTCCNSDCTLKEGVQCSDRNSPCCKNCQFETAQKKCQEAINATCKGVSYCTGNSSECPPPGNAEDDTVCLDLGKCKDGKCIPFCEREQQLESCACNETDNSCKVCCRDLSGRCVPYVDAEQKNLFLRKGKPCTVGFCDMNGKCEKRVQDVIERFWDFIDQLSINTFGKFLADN

T1 sequence (P08254 100-272, stated change not applied): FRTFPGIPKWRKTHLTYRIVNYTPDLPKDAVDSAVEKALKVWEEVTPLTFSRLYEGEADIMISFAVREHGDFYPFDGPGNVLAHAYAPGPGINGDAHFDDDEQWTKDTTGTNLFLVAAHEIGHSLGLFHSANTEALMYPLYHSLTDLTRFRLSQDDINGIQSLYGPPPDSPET

B1: FLAG-tagged TIMP-3 (natural protein, UniProt P35625 24-211, looked up)
chain: CTCSPSHPQDAFCNSDIVIRAKVVGKKLVKEGPFGTLVYTIKQMKMYRGFTKMPHVQYIHTEASESLCGLKLEVNKYQYLLTGRVYDGKMYTGLCNFVERWDQLTLSQRKGLNYRYHLGCNCKIKSCYYLPCFVTSKNECLWTDMLSNFGYPGYQSKHYACIRQKGGYCSWYRGWAPPDKSIINATDP
notes: also called T3; [35S]TIMP-3
[1]
  stoichiometry N: 1
MMP-9
  stoichiometry N: 1
Ectodomain of MMP-14
  stoichiometry N: 1
[2]
  stoichiometry N: 1
[3]
  stoichiometry N: 1
[4]
  stoichiometry N: 1
[5]
  Kd: 1.68 nM
  koff: 0.00389 s⁻¹
  kon: 2.31e+06 M⁻¹ s⁻¹
[6]
  Ki: < 0.5 nM
ADAM17 ectodomain
  Ki: 3.61 nM
